The nanobody polyreactivity screen of Harvey et al. (2022)

Experiment: yeast display, Sf9 membrane polyspecificity reagent, FACS + sequencing; frameworks hold sequencing errors
In short: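 Polyreactivity labels are assigned by the sorting gate from which each nanobody was recovered. The gates were low and high (top ~1%), set on anti-HA fluorescence for expression and streptavidin fluorescence for reagent binding. Before sorting, galactose-induced (36–48 hours) yeast display cells were stained for 1 hour at 4 °C with 10% biotinylated, detergent-solubilized Sf9 membrane reagent.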

| Sequence | polyreactivity (PSR sort gate) |
| --- | --- |
| QVQLVESGGGLVQAGGSLRLSCAASGLIFTTNAMGWYRQAPGKERELVAAISTSTGRTYYADSVKGRFTISRDNAKNTVYLQMNSLKPEDTAVYYCARGSRYVGTQRHYYKYDYWGQGTQVTVSS | high polyreactivity |
| QVQLVESGGGLVQAGGSLRLSCAASGSTYVSNAMGWYRQAPGKERELVAAISTGGGTCYADSVKGRFTISRDNAKNTVYLQMNSLKPEDTAVYYCNAVYVWWDGWGLYYWGQGTQVTVSS | low polyreactivity |
| QVQLVESGGGLVQAGGSLRLSCAASGSTFYVNDMGWYRQAPGKERELVATISSGSSTYYADSVKGRFTISRDNAKNTVYLQMNSLKPEDTAVYYCAADGVAEEGFDARYDYWGQGTQVTVSS | low polyreactivity |
| QVQLVESGGGLVQAGGSLRLSCAASGSIFTDYAMGWYRQAPGKERELVATITWSDASTYYTDSVKGRFTISRDNAKNTVYLQMNSLIPEDTAVYYCARRSRYSKGYDYWGQGTQVTVSS | low polyreactivity |
| QVQLVESGGGLVQAGGSLSLSCAASGRIIGFNAMGWYRQAPGKERELVASIRTTGGSTRYADSVKGRFTISRDNAKNTVYLQMNSLKPEDTAVYYCAARWGKTLWQYNYWGQGTQVTVSS | high polyreactivity |
| QVQLEESGGGLVQAGGSLRLSCAAYGSIFRFYAMGRYRQAPGKERQFVASITGTGGSTYYADSVKGRFTISRDNAKNTVYLQMNSLKPEDTAVYYCAKTQYSFPRLGYDYWGQGTQVTVSS | high polyreactivity |
| QVQLVESGGGLVQAGVSLRLSCAASGFTFYPYAMGWYRQAPGKERELVAAISYSGGRTYADSVKGRFTISRDNAKNTVYLQMNSLKPEDTAVYYCAADWTVLVYPYYHEYDYWGQGTQVTVSS | low polyreactivity |
| QVQLVESRGGLVQAGGSLRLSCAASGFTFIGYAMGWYRPEPGKERELVAPITQSGGSTFYADSVKGRFTISRENAKNTVYLQMNSLKPEDTAVDDCNAYRKFRYCGQGTQVTVSS | low polyreactivity |
| QVQLVESGGGLVQAGGSLRLSCAASGSTFYEYAMGWYRQAPGKERELVAAITSGGSTYYADSVKGRFTISRDNAKNTVYLQMNSLKPEDTAVYYCAADPRIRRGDRSTHGYDYWGQGTQVTVSS | low polyreactivity |
| QVQLVESGGGLVQAGGSLRLSCAASGRIFGGYAMGWYRQAPGKERELVAAITSSGSTNYADSVKGRFTISRDNAKNTVYLQMNSLKPEDTAVYYCATDFKTVYYWWGMDYWGQGTQVTVSS | low polyreactivity |
| QVQLVESGGGLVQAGGSLRLSCAASGRIFTVYAMGWYRQAPGQERELVAAISRGGSTYADSVKGRFTISRDNAKISVYLQMNSLKPEDTAVYYCAAVNFRKGEDYWGQGTQVTVSS | high polyreactivity |
| QVQLVESGGGLVQAGGSLRLSCAASGSTFYYYTMGWYRQAPGKERELVDISWDGDSTYSADSVKGRFTISRDNAKNTVYLQMNSLKPEDTAVYYCAAADYYLPDDVSDYVDANFDYWGQGTQVTVSS | low polyreactivity |
| QDQHVESGGGLVQAGGILRLICAASGPIFGYNAMGWYRQEPGQERELVAAINSDGSKNYADSVKGRFTISRDNAKITVYLQMISLKPEDTAVYYCNQLLYPVGDYEFWGQGTQVTVSS | low polyreactivity |
| QDQLVESVGGLDQAGGSLRLSSAASGRTFWWNAMGWYRQAPGKERELVAVISYSGGSTYYADSVKGRFTISRDNAKNTVYLQMNSLKPEDTAVYYCAAATRVRGFTEYYWGQGTQVTVSS | high polyreactivity |
| QVQLVESGGGLVQAGGSLRLSCAASGFTFNVNAMGWYRQAPGKERELVATITWSDGSTRYADSVKGRFTISRDNAKNTVYLQMNSLKPEDTAVYYCAAESSECTSGDYDYWGQCTQVTVSS | low polyreactivity |
| QVQLVESGGGLVQAGGSLRLSCAASGFIFRYYAMGWYRQAPGKEREFVAVISSGGGRTYYADSVKGRFTISRDNAKNTVYLQMNSLKPEDTAVYYCAKGYRYWVRIVRSFTSYDYWGQGTQVTVSS | high polyreactivity |
| QVQLVESGGGLVQAGGSLRLSCAASGSIFPYNAMGWYRPAPGKERELVATISSGGSTNYADSVKGRFTISRDNAMNTVYLQMNIMKPEDTAVYYCAKETIGQDPVSGAWARHEYDYWGQGTQVTVSS | low polyreactivity |
| QVQLVESGGGLVQAGGSLRLSCAASGNIFTYYVMGWYRQAPGKQRELVAAISRRGGSTYYADSVKGRFIISRDNAKHTVYLQMNSLKPEDTAVYYCAKKYPRDMDYWGQGTQVTVSS | high polyreactivity |
| QVQLVESGGGLVQAGGSLRLSCAASGSTFTKYAMGWYRKAPGKERELVAAITYSGGRTYYADSVKGRFTISRDNAKNTVYLQMNSLKPEDTAVYYCAAATYAGKPMEYWGQGTQVTVSS | high polyreactivity |
| QVQLVESGGGLVQAGGSLRLSCAASGYTFTGNAMGWYRQAPGKERELVARITSVGRTYYADSVKGRFTISRDNAKNTVYLQMNSLKPEDTAVYYCAAQPYRYRYWPRVGGYDYWGQGTQVTVTS | high polyreactivity |
| QVQLVESGGGLVQAGGSLRLSCAASGSTFSRYAMGWYRQAPGKERELVAAISQGGGRTYYADSVKGRFTISRDNAKNTVYLQMNSLKPEDTAVYYCAAREYYRKPYDHWGQGTQVTVSS | high polyreactivity |
| QVQLVESGGGLVQAGGSLRLSCAASGSTFRGYAMGWYRQAPGKERELVATITSGGSTNYADSVKGRFTISRDNGKNTVYLQMNSLKPEDTAVYYCNARWVPRYWYDYWGQGTQVTVSS | high polyreactivity |

| Sequence | polyreactivity (PSR sort gate) |
| --- | --- |
| QVQLVESGGGLVQAGGSLRLSCAASGSTFAWYAMGWYRQAPGKERELVAAISRTGRTYYADSVKGRFTISRDNAKNSVYLQMNSLKPEDTAVYYCAAKSIYDGFPYYLFDYWGQGTQVTVSS | high polyreactivity |
| QVQHEESAGGLVQAGGSLRLSCAASGSTIHPYSMGWSRQAPGKERELVAAITWGGGSTYYADSVKGRFTISRDNAKNTVYLQMNSLKPEDTAVYYCNSYTLYWPDYDYWGQGTQVTVSS | low polyreactivity |
| QVQLVESGGGLVQAGGSLRLSCAASGFIFSSYAMGWYRQAPGKERELVAAISKSGDRTSYADSVKGRFTISRDNAKNTVYLQMNSLKPEDTAVYYCAKDRLYRTKKYRDMYYWGQGTQVTVSS | high polyreactivity |
| QVQLVESGGGLVQARGSLRLSCAASGSTFYYYAMALSRQAPVKERELFASISDHGSTNYADSVKGRFTISRDNAKNTVFLQMNSMKPEDTAVYYCGAVWCLQFGSAWYQMGYWGQVTQVTVSS | low polyreactivity |
| QVQLVESGGGLVQAGGSLRLSCAASGGTFNGYAMGWYRQAPGKERELVAAITSSGGSTYYADSVKGRFTISRDNAKNTVYLQMNSLKPEDTAVYYCAAALYPTYDVVRGYAYEYWGQGTQVTVSS | low polyreactivity |
| QVQLVESGGCLVQAGGSLRLSCAASGSTFTYNAMGWYRQAPGKERELVAAISRTANANYADSVKGRFTISRDNAKNTVYLQMNSLKPEDTAVYYCADDFLDSKVHVRFGYWGKGTQVTVSS | low polyreactivity |
| QVQLVESGGGLVQAGGSLRLSCAASGFIFYPYAMGWYRQAPGKERELVAVITSGGRTYYADSVKGRFTISRDNAKNTVYLQMNSLKPEDTAVYYCAARYGRIQWKANWPEYGYWGQGTQVTVSS | low polyreactivity |
| QVQLVESGGGLVQAGCSLRLSCAASGSVFTVYSMGWYRQAPGKERELVAAITRNGGRTYYADSVKVRFTISRDNSKNTVYLQMKILKPEDTAVYSCAATGLYSRLDYWGQGTQVTVSS | high polyreactivity |
| QVQLVESGGGLVQAGGSLRLSCAASGFTFPFYAMGWYRQAPGKERELVAPISRSGTRTYYADSVKGRFTISRDNAKNTVYLQMNSLKPEDTAVYYCAAAYHNGYLSEGYWEHYYWGQGTQVTVSS | high polyreactivity |
| QVQLVESGGGLVQAGGSLRLSCAASGSTFVSYAMGWYRQAPGKERELVAAITWRGDSTYYADSVKGRFTLSRDNAKNTVYLQMNSLKPEDTAVYYCAADGRSWRYYSPYYYWGQGTQVTVSS | low polyreactivity |
| QVQLVESGGGLVQAGGSLRLSCAASVRIFATNAMGWSRQAPGKERELVARISRRGGSTNYADSVKGRFTISRDNAKNTVYLQMNSLKPEDTAVYYCNVSFYWYRWYALLDYWGQVTQVTVSS | high polyreactivity |
| QVQLVESGGGLVQAGGSLSLSCAASGSTFARYAMGWYRQAPGKERELVAAISITGSTYYADSVKGRFTISRDNAKNTVYLQMKSLKPEDTAVYYCNVKSKYRYGYWGQGTQVTVSS | high polyreactivity |
| QVQLVESGGGLVQAGGSLRLSCASSGRTFSGYAMGWYRQAPGKERELVASITWSGGSTYYADSVKGRFTISRDNAKNTVYLQMNSLKPDDTAVYYCARDSPRGRVGFNYWGQGTQVTVSS | low polyreactivity |
| QVHLVVSGGGLVQAGGSLRLSCAASGRLLYKYAMGWNRQAPGKERELVAAISGSGGRTYYADSVKGRFTISRDNAKNTVYLQMNSLKPEDTAVYYCAAVHPFRHVLYDYWGQGTQVTVSS | low polyreactivity |
| QVQLQESGGGLVQACGSLRLSCAASGYIFSHQYMGLYRQAPGKERELVASISPGATTNYADSVKGRLTISRDNAKNTVYLQMNSLKPEDTAVYYYAVYQILDRRLSYWGQGTQVTVSC | high polyreactivity |
| QVQLVESGGGLVQAGGSLRLSCAASGSIFYRNAMGWYRPAPGKERELVAAISSDGSTNYADSVKGRFTISRDNAKNTVYLQMNSLKPEDTAVYYCAVDRYRYPFDYWGQGTQVTVSS | low polyreactivity |
| QVQLVESGGGLVQAGGSLRLSCAASGSIFVPYAMGWYRQAPGKEREFVAVISLRGSRTYYADSVKGRFTISRDNAKNTVYLQMNSLKPEDTAVYYCATTGYRLRQATRYDYWGQGTQVTVSS | high polyreactivity |
| QVQLVESGGGLVQAGGSLRLSCAASGSIFGYYAMGWYRQAPGNERELVAAISFSAGNTYYADSVKGRFTISRDNAKNTVYLQMNSLKPEDSAVYYCAADPKYWTGWIWTSGYDYWGQGTQVTVSS | high polyreactivity |
| QVQLVESGGGLVQAGGSLRLSCAASGRSFYFNAMGWYRQAPGKERELVATISSSSTTYADSVKRRFTISRDNAKNTVYLQMTSLKPEDTAVYYCAARLGTYGEWGRTSYLRWYDYWGQGTQVTVSS | low polyreactivity |
| QVQLVESGGGIVQAGGSLRLSCAASGLTFWPYAMGWYRQARGKERELVAAISYNSGRTYYADSVKGRFTISRDNAKNTVYLQMNSLKPEDTEVYYCAVEWSLSRYYYWGQGTQVTVSS | high polyreactivity |
| QVQLVESGGGLVQAGGSLRLSCAASGSIFYTNVMGWYRQAPGKERELVAAISSSGDRTYYADSVKGRFTISRDNAKNTVYLQMNSLKPEDTAVYYCAAQSYRSRYYYWGQGTQVTVSS | high polyreactivity |
